# In paper PMC10999177, “miR‐1246 promotes osteosarcoma cell migration via NamiRNA‐enhancer network dependent on Argonaute 2”:
# Target: hAGO2 (Homo sapiens, UniProt Q9UKV8 1-859)
# Assay: EMSA; 20 nM probe, binding buffer of cited ref. 28 (composition and pH not given), on ice 30 min; 5% native PAGE, 0.5x TBE, 100 V 50 min
# Conditions: protein: recombinant; tags: MBP-tag removed by thrombin; HisTrap purification (His tag implied); label: 5'-Cy5; single strand
# Sequence of hAGO2 (Q9UKV8 whole entry): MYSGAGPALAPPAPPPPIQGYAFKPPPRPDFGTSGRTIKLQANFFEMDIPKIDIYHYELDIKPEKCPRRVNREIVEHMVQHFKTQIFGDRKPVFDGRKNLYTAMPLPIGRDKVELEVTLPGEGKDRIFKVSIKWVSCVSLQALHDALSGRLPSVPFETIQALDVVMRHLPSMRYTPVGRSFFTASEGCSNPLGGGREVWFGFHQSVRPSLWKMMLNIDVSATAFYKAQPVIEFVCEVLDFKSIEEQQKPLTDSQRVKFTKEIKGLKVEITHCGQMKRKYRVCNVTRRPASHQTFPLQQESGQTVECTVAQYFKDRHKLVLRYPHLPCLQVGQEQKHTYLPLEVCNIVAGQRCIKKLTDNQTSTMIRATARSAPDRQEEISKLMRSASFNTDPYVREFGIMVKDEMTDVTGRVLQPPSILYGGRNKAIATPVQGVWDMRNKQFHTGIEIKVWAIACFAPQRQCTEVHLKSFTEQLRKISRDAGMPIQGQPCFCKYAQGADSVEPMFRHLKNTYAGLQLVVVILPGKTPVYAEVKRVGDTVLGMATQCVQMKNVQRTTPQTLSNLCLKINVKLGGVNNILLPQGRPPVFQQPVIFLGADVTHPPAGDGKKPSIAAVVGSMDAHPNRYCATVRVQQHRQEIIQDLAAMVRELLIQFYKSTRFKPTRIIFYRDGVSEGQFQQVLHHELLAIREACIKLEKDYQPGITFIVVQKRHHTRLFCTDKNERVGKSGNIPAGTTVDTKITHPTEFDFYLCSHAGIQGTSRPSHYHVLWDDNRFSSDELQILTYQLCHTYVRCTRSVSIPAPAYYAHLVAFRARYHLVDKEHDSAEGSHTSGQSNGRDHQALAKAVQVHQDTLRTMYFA
binder,measurement,value
AAUGGAUUUUUGGAGCAGG (ssRNA) [5'Cy5-miR-1246],Kd,12.2 ± 1.8 nM
